Measured values from patent US20230348572A1 (ROSALIND FRANKLIN INSTITUTE, published 2023).
Read-outs that look alike come from different tables or passages of the source.

B1: NbRBD_H11-H4 (VHH)
VHH: QVQLVESGGGLMQAGGSLRLSCAVSGRTFSTAAMGWFRQAPGKEREFVAAIRWSGGSAYYADSVKGRFTISRDKAKNTVYLQMNSLKYEDTAVYYCAQTHYVSYLLSDYATWPYDYWGQGTQVTVSS
notes: also called nanobody H11-H4
B2: NbRBD_H11-D4 (VHH)
VHH: QVQLVESGGGLMQAGGSLRLSCAVSGRTFSTAAMGWFRQAPGKEREFVAAIRWSGGSAYYADSVKGRFTISRDKAKNTVYLQMNSLKYEDTAVYYCARTENVRSLLSDYATWPYDYWGQGTQVTVSS
notes: also called nanobody H11-D4

Legend:
[1] = molecular target: T1, SARS-CoV-2 spike glycoprotein ectodomain (prefusion-stabilized, trimeric) (SARS-CoV-2, UniProt P0DTC2 14-1208); test: ITC, nanobody titrated into trimeric Spike, 1:1 nanobody:monomer
T1 construct: range 1-1208; also called spike protein; Spike ectodomain

[2] = molecular target: T1, SARS-CoV-2 spike glycoprotein …
[3] = molecular target: T1, SARS-CoV-2 spike glycoprotein …; test: ITC, Spike in the cell, H11-H4 in the syringe
[4] = molecular target: T1, SARS-CoV-2 spike glycoprotein …; remark: listed apart in the source

Binder	Kd [1]	ΔH [2]	ΔS [2]	ΔH [3]	ΔS [3]	ΔH [4]	ΔS [4]
B1	44 nM	-74 kJmol-1	-107 Jmol-1K-1	-73 kJmol-1	-103 Jmol-1K-1	–	–
B2	79 nM	–	–	–	–	-81.2 kJmol-1	-136 Jmol-1K-1
